Measurements as given in the supplement of paper PMC12764529.
± gives the half width of the 95% confidence interval.

Assay: folding stability dG unfold from chymotrypsin proteolysis; higher = more stable
Summary of the method: (§1)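 Bayesian fitting of sequencing counts gave K50 for each design. Unfolding free energy followed by setting this against a sequence-predicted unfolded-state K50 and a shared folded-state K50, either per protease or with trypsin and chymotrypsin combined. The designs, under 80 residues and lacking cysteine, were digested in a PA-tagged cDNA display format at 11 threefold-diluted protease concentrations and without protease, and only those with AlphaFold2 dimer inter-PAE above 15 were kept.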

Row | Sequence | folding stability dG unfold [kcal/mol]
1 | SPPVRARIRVERLPDGSVRVELEVEFPDGVRVRIETLEAPPETGVVRVRARFFPPDGSSVEFEFTFPLLRSA [r9_1179_TrMRF] | 4.96 ± 0.12
2 | SAGGSAGGSMVIRVTVKLPNGEEKVFEIEVSEEELKNMSIEELKKLAEELGLPEDVKIELVPPSAGGSAGGS [r12_742_TrROS_Hall] | 3.29 ± 0.17
3 | SAGMTITIPAPPSLSPEEAVALAIERVKEEYPELLTPGSEVNIVVIREDPATGTSQTLTVTVPFPEGIFSAG [r5_916_JUSTAS] | 1.57 ± 0.044
4 | SMKTVVIKIRKKDGKVTLEEIREAIKALLPPGAKVKLTEEELEKLVEELEKKTGKEITADDLVIVVEVEPSA [r9_197_TrROS_Hall] | 2.59 ± 0.081
5 | SALLVAPDGTVVKPETIKTTVETFTTYFLPPGKPVTRKGVKEYTVTVTTTTYTTPNPTLTVETTVTTVGSAG [r14_291_JUSTAS] | 0.667 ± 0.2
6 | SAGGMIELTIVVKTKEEAEKAAEELARKLAEELGVEVTVTSVEVEEVEDPETGETYLVVRVRIEVKPSAGGS [r8_171_TrROS_Hall] | 4.12 ± 0.11
7 | SAGGSAGGSAGMGVPPDGATLRFTYPESPSSTRTFTSPEEAAAWIAANLPPEHSVSFSPASAGGSAGGSAGG [r11_983_JUSTAS] | 0.863 ± 0.12
8 | SAGGSAGGMTSDKPVLPALIRVYYPNEGREETIPVLLGEDMPLEEALRIARELAHPDAKAEILNSAGGSAGG [r6_440_TrMRF] | 0.624 ± 0.053
9 | SAGGSAGGSPGFIIRVRTWERDPKDGKWKPKRERPLTFPPDDADDFADKLNSESPNVEVEIMPSAGGSAGGS [r12_342_TrROS] | -0.259 ± 0.25
10 | SAGGSAGGSAGGGSVTIEIEFEAKPGEKFTVTIKGFKKVEITEIYPFDGKVRIKVKVTPESAGGSAGGSAGG [r7_292_TrMRF] | 3.88 ± 0.13
11 | SAGGSAGGSAIMINIDLEYDPGDGTIELEYKISFMDPGGKPMGMITIRLEIRIPPPEPDPDDKSAGGSAGGS [r12_254_TrROS] | 3.64 ± 0.39
12 | SAGMAEKIKAELEKKGYKYEIEEVKDPNNDKTYLIVKIYPKDGKEYIIIFDKEKGEVIKKIPSDEPNILSAG [r5_938_JUSTAS] | 1.59 ± 0.14
13 | SAGGSAGGSPLPYLTEDGEVQVVVRIDNSTGTTTVTLTGPDGKLLKTFSVSTDGPAFVVVRAGSAGGSAGGS [r12_960_TrMRF] | 1.92 ± 0.028
14 | SAGGSAGGMKEGETRTITFWANVKPGDLEKIANHMMKFGWPIKKVDIKRHPENGMVRVSITIRKSAGGSAGG [r6_514_TrROS] | 2.56 ± 0.045
15 | SAGGSAGGSAGGMIVETLGDSPETVTLVKLPNKPIIRTYDPVTGTWTIYDPDTNKIYEISAGGSAGGSAGGS [r10_434_JUSTAS] | 0.872 ± 0.14
16 | SAGGSAGGSAGGWIFIIEIDPDNGEIKINWPNGNSIKIPPEDLDNMPIEIKPIPPPPNDKSAGGSAGGSAGG [r7_99_TrROS] | 1.88 ± 0.097
17 | SAKILEIKPLPDGTVIIKIPVDAPEDVDPKEVKILVKSEEGVKEAEILEDGTIDIVVENVKDVKIEIFVESA [r9_722_TrMRF] | 0.382 ± 0.074
18 | SAGGNMFMIKIDDPDALKELANEPGISSVHYNPNNGRYTVMFNFPDGMRTFEIDAEDGKIKEIEPFPSAGGS [r8_251_TrROS] | 1.82 ± 0.037
19 | SAGGLPPGWKPIDIMVLVPPGEPLTEDQVEELAKEIARELQEKGVTIDVRVWPTDDWYFVSVDIQVPDSAGG [r13_442_TrROS] | 1.31 ± 0.13
20 | SAGGSIPLSDIKDIEIHPWRHPNNNYPMYRIRIDNGRDMVIFPGAIFEFDPDDGKIEEVKPMPFGDSAGGSA [r2_374_TrROS] | 0.222 ± 0.22
21 | SAGGETVEIEVEMSPEEVREAIKKAAEALDAEVVEVKYDKETKKVTITVKKGATEEELRKALEEALKSAGGS [r8_338_TrROS_Hall] | 1.78 ± 0.095

Assay: folding stability dG unfold from trypsin proteolysis; higher = more stable
Summary of the method: as §1

Row | Sequence | folding stability dG unfold [kcal/mol]
22 | SHPDEFPKELVDAIAKAFPNIKRIEVEPLPDKFVLLKVEFIDGDGEGRVAFAVPTPDGETALHEYLVRNPSA [r9_678_TrMRF] | 1 ± 0.013
23 | SAGGSSPEELAEKAINEAMEKFGFKEISEIKIQKEDDGVRITIRMPNNGYTIEIDYEDGKITEIQPWSAGGS [r16_171_TrROS] | 1.53 ± 0.051
24 | SAGGSAGGSAGGNVITVFIPNYQIITIHLSPEPGRIPIEVYPPNGKKEEWPIPDIKELIQSAGGSAGGSAGG [r7_769_TrROS] | 1.6 ± 0.13
25 | SAGGSAGGGPKVTVEVTESKVYELEDGSYVAVNTYTVTFEAEGKTVKVTFYRTFPKGFAGGPFSSAGGSAGG [r6_799_TrMRF] | 2.28 ± 0.064
26 | SAGGSAGGSMTIVIPKKTLEKMKPETIKKLLELAKELNTTITMNENAITIPVGKGTEEALKALSAGGSAGGS [r12_945_TrMRF] | 1.5 ± 0.07
27 | SAGMKVIEIDVPVSKIEEVKEELEAEAKEKGLNIKFEKLEKLPGNKYKMIVTVTDPTSNEKTIYNINILSAG [r5_41_JUSTAS] | 3.83 ± 0.27
28 | SAGPEKPFDIVIVEVKSMEVHEDPNGRRSVRIPVVARIPGGYYIRFEIWINPPTGNVSIDWEIVPLDDSAGG [r19_320_TrROS] | 2.73 ± 0.047
29 | SMTLTLEDGKLTLTVTETRTTVERDAADPGKWTTRTETRTVTLTLPLEDLEALKKLLEALPPGARVELVPSA [r9_476_TrROS_Hall] | 3.23 ± 0.09
30 | SAEVRVEIVEVDEERGVIRIEITVPEDLPEEEILEELARRLEELARERGYEVRIERREDGTYRIEIRFPSAG [r14_865_TrROS_Hall] | 4.18 ± 0.16
31 | SAGGSAGGSAGGKKYIIKNKKTNKYIEVDVIEKDGKLYVYDKKTGKVHEVSLKDLEIVPSAGGSAGGSAGGS [r10_28_TrROS_Hall] | 1.84 ± 0.088
32 | SAGGSAGGSAGGMLLSPEEAEKLAAELKAKENVTIKVTPEPSPGKVKVEIIKTKGPKLVSAGGSAGGSAGGS [r10_402_JUSTAS] | -0.0172 ± 0.17
33 | GHRIKVNTVHTPSGTFSLTATVRYPDGTTVTYSFNLPSSPNDTFSVSVPESVPLTTVTTSTFQGDTETPTSS [r1_70_JUSTAS] | 1.02 ± 0.044
34 | SMTIKLPSKDFKLETLPDGTIKLTVKEPDGTVVTYTFPKGDKITKIEKITPDTIKLTFEKKPRLNPEILLSA [r9_501_JUSTAS] | 2.16 ± 0.097
35 | SAGGSAGGSAGSLPIPISSESVSSLPESPLSVVTVKLPDGKTVVITVDLNSSSSSVTPLPSAGGSAGGSAGG [r17_369_JUSTAS] | 1.61 ± 0.051
36 | SAGGSAGGSAGGDPLPVTFTIPLEDDTTAKAVLSGDLVEVTIPNGKKYVLIPNPAVLGSSAGGSAGGSAGGS [r10_1176_TrMRF] | -0.144 ± 0.11
37 | SAGGSAMPDLAAAPGVTRVEPYPDGLVEIHLDGSEEARDEIEERLRAAGDFEIYRLPDRDTLLVRASAGGSA [r15_554_TrMRF] | -0.00819 ± 0.26
38 | SAGGSAGGSAMIVVPVDLVRERLDELVFRGEDGVEYRAEVRVFEVGDRPVAVIDLRPLDEDGSAGGSAGGSA [r18_447_TrMRF] | 0.467 ± 0.025
39 | SAGGSAGGSMTTTVERSPSGKTTVTETETRKDAAGNEYTLVTTTTFDPNTTTSTTTTTVVPVSSAGGSAGGS [r12_57_JUSTAS] | 1.07 ± 0.062
40 | KTRHIPIRDALDEAEELIDEGPRMVKITIYNNNGQKHEIETLKDILDKLKSNFPGMPPDNMKVQVEVIPPPS [r1_325_TrROS] | -0.297 ± 0.68
41 | SAGGSAGGKIAVIPYVPEEDIPPELRELFGKEGSLSPEEFQELFAEAVARELGEEGAIDAVIVESAGGSAGG [r6_654_TrMRF] | 0.618 ± 0.032
42 | SAGGMKTSAEELVERLKKELEAKGLKPKEVKKLPDGSLLVEFEEDVVVYIDAKTGTVTVLTPEEYEKLSAGG [r13_717_JUSTAS] | 1.7 ± 0.12

Row | Sequence | folding stability dG unfold [kcal/mol]
43 | SPPVRARIRVERLPDGSVRVELEVEFPDGVRVRIETLEAPPETGVVRVRARFFPPDGSSVEFEFTFPLLRSA [r9_1179_TrMRF] | 3.74 ± 0.086
44 | SAGGSAGGSMVIRVTVKLPNGEEKVFEIEVSEEELKNMSIEELKKLAEELGLPEDVKIELVPPSAGGSAGGS [r12_742_TrROS_Hall] | 3.29 ± 0.12
45 | SAGMTITIPAPPSLSPEEAVALAIERVKEEYPELLTPGSEVNIVVIREDPATGTSQTLTVTVPFPEGIFSAG [r5_916_JUSTAS] | 1.98 ± 0.045
46 | SMKTVVIKIRKKDGKVTLEEIREAIKALLPPGAKVKLTEEELEKLVEELEKKTGKEITADDLVIVVEVEPSA [r9_197_TrROS_Hall] | 2.29 ± 0.085
47 | SALLVAPDGTVVKPETIKTTVETFTTYFLPPGKPVTRKGVKEYTVTVTTTTYTTPNPTLTVETTVTTVGSAG [r14_291_JUSTAS] | -0.0458 ± 0.11
48 | SAGGMIELTIVVKTKEEAEKAAEELARKLAEELGVEVTVTSVEVEEVEDPETGETYLVVRVRIEVKPSAGGS [r8_171_TrROS_Hall] | 4.75 ± 0.27
49 | SAGGSAGGSAGMGVPPDGATLRFTYPESPSSTRTFTSPEEAAAWIAANLPPEHSVSFSPASAGGSAGGSAGG [r11_983_JUSTAS] | 0.25 ± 0.1
50 | SAGGSAGGMTSDKPVLPALIRVYYPNEGREETIPVLLGEDMPLEEALRIARELAHPDAKAEILNSAGGSAGG [r6_440_TrMRF] | -0.183 ± 0.093
51 | SAGGSAGGSPGFIIRVRTWERDPKDGKWKPKRERPLTFPPDDADDFADKLNSESPNVEVEIMPSAGGSAGGS [r12_342_TrROS] | -0.0285 ± 0.15
52 | SAGGSAGGSAGGGSVTIEIEFEAKPGEKFTVTIKGFKKVEITEIYPFDGKVRIKVKVTPESAGGSAGGSAGG [r7_292_TrMRF] | 3.18 ± 0.13
53 | SAGGSAGGSAIMINIDLEYDPGDGTIELEYKISFMDPGGKPMGMITIRLEIRIPPPEPDPDDKSAGGSAGGS [r12_254_TrROS] | 3.08 ± 0.31
54 | SAGMAEKIKAELEKKGYKYEIEEVKDPNNDKTYLIVKIYPKDGKEYIIIFDKEKGEVIKKIPSDEPNILSAG [r5_938_JUSTAS] | 1.49 ± 0.13
55 | SAGGSAGGSPLPYLTEDGEVQVVVRIDNSTGTTTVTLTGPDGKLLKTFSVSTDGPAFVVVRAGSAGGSAGGS [r12_960_TrMRF] | 1.34 ± 0.034
56 | SAGGSAGGMKEGETRTITFWANVKPGDLEKIANHMMKFGWPIKKVDIKRHPENGMVRVSITIRKSAGGSAGG [r6_514_TrROS] | 2.21 ± 0.025
57 | SAGGSAGGSAGGMIVETLGDSPETVTLVKLPNKPIIRTYDPVTGTWTIYDPDTNKIYEISAGGSAGGSAGGS [r10_434_JUSTAS] | 1.39 ± 0.052
58 | SAGGSAGGSAGGWIFIIEIDPDNGEIKINWPNGNSIKIPPEDLDNMPIEIKPIPPPPNDKSAGGSAGGSAGG [r7_99_TrROS] | 1.83 ± 0.19
59 | SAKILEIKPLPDGTVIIKIPVDAPEDVDPKEVKILVKSEEGVKEAEILEDGTIDIVVENVKDVKIEIFVESA [r9_722_TrMRF] | 0.305 ± 0.061
60 | SAGGNMFMIKIDDPDALKELANEPGISSVHYNPNNGRYTVMFNFPDGMRTFEIDAEDGKIKEIEPFPSAGGS [r8_251_TrROS] | 1.58 ± 0.034
61 | SAGGLPPGWKPIDIMVLVPPGEPLTEDQVEELAKEIARELQEKGVTIDVRVWPTDDWYFVSVDIQVPDSAGG [r13_442_TrROS] | 2.08 ± 0.11
62 | SAGGSIPLSDIKDIEIHPWRHPNNNYPMYRIRIDNGRDMVIFPGAIFEFDPDDGKIEEVKPMPFGDSAGGSA [r2_374_TrROS] | 0.165 ± 0.22
63 | SAGGETVEIEVEMSPEEVREAIKKAAEALDAEVVEVKYDKETKKVTITVKKGATEEELRKALEEALKSAGGS [r8_338_TrROS_Hall] | 2.47 ± 0.12
